The results in this text go back to US20250223627A1, “FLUOROGENIC SUBSTRATES FOR AMINOPEPTIDASE DETECTION IN BIOFLUIDS” (GLYMPSE BIO, INC., priority 2022, published 2025).

The test system of one data set is NASH-related proteases. As to the kind of experiment: Probe cleavage in mouse plasma, NASH vs healthy (RFU per minute). Format: biochemical. The following applies: for disease contrast (NASH vs healthy): mouse plasma; for ability to distinguish (differentiate) between NASH and healthy samples: activity as RFU per minute in 1% mouse plasma, NASH (CDAHFD) vs healthy (CD). Here is the method:
All animals were used in accordance with animal care guidelines. Plasma was obtained from these blood samples by centrifugation at 3,500 RPM for 20 min at 4° C. The plasma was stored at −80° C. until it was needed for experimental purposes.
Samples were mixed with protease substrates and quenchers/reporters in 96-well plates. The 96-well plates were read on a Biotech Synergy H1, using 465,535 excitation/emission settings.
The probes of the present application were able to measure the activity of NASH-related proteases as expressed in Relative Fluorescent Unit (RFU) per minute in the two mouse populations. Probes measuring cathepsin activity were 3-fold higher in protease cleavage kinetics in mice with NASH compared to healthy mice.
Using the method of the above example, PEGylated probes were used to measure the activity of NASH-related proteases, as expressed in RFU per minute in 1% mouse plasma samples.

For another data set, the target named is DPP4 (Homo sapiens, UniProt P27487). As to the kind of experiment: Recombinant protease panel, probe cleavage: dpp4. The following applies: expressed in RFU per minute. The class given is biochemical. Here is the method:
Substrate plates were thawed and spun down for 5 minutes to ensure the substrates were at the bottom of the wells. Proteases for each substrate plate were prepared by adding 1 protease per plate. Proteases were then diluted to 15 nM in 2 mL of specified protease buffer (see Table 5). Assay buffer was added to control wells while […] active enzyme in assay buffer was added to each sample well. Plates were spun down and then read immediately after centrifugation.

Data set [1] relates to Probe #766, K(Acc)(Hyp)G(PEG8)K(Dnp)k.
For data set [2], the system named is Probe #768, K(Acc)(Sar)G(PEG8)K(Dnp)k.
Data set [3] has as its system most other probes (FIG. 16).
The test system of data set [4] is Probe #762, K(Acc)(Pro-4-Obzl)G(PEG8)K(Dnp)k.

Chain of DPP4 (P27487 whole entry, species assumed): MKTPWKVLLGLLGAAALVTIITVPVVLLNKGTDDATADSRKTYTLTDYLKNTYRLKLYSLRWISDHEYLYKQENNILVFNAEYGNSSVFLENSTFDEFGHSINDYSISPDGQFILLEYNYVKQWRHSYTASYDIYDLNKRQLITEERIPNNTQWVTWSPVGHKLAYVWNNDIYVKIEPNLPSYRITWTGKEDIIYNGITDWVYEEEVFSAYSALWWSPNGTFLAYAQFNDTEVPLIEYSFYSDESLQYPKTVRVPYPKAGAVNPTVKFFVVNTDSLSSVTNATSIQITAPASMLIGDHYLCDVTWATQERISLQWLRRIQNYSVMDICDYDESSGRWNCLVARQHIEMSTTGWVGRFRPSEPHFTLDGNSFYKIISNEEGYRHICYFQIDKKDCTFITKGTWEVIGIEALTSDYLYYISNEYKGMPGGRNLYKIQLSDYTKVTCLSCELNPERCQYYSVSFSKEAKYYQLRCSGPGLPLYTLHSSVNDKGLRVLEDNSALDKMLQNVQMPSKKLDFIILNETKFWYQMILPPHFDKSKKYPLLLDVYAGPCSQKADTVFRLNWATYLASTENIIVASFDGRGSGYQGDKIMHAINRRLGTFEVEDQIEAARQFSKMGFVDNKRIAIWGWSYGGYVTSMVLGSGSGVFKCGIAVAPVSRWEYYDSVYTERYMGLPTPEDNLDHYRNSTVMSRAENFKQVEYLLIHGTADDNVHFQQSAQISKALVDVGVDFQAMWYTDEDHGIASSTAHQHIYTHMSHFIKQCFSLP

With AK(Acc)G-PEG8-K(Dnp)-k [Probe #680], the “disease contrast (NASH vs healthy)” value in the data set with NASH-related proteases is on record as “Lys-Ala motif of Probe #678 (FIG. 13A) displays stronger disease contrast than the Ala-Lys motif of Probe #680”.
With K(Acc)AG-PEG8-K(Dnp)-k [Probe #678], the “DPPIV (DPP4) protease activity on the probe (cleavage)” value at DPP4 was “needed for measuring DPPIV activity”. In the data set with NASH-related proteases, the “ability to distinguish (differentiate) between NASH and healthy samples” value was “ability to distinguish between NASH and healthy samples”; the “disease contrast (NASH vs healthy)” value is on record as “stronger disease contrast than the Ala-Lys motif of Probe #680”. Also, the “ability to distinguish (differentiate) between NASH and healthy samples” value in the data set with NASH-related proteases (listed as probe 678) is “able to differentiate between NASH and healthy samples”.
For aminopeptidase n/CD13, the “hydrolysis of fluorogenic probe by protease” value in data set [1] is on record as “evade hydrolysis from Aminopeptidase N”; in data set [2], “evade hydrolysis from Aminopeptidase N”; in data set [3], “most other probes are susceptible to cleavage”; in data set [4] it was “evade hydrolysis from Aminopeptidase N”.
As for dipeptidyl-peptidase 4 (DPP4 or DPPIV), the “cleavage of fluorogenic probe by protease panel” value in data set [1] and in data set [2] was “selective for dipeptidyl peptidases with strong preferences for DPP4” in each case. In the data set on a substrate (FIG. 19C), the “cleavage of fluorogenic substrate (fluorescence over time)” value was “a substrate is rapidly cleaved by DPP4 (square markers) but remains intact in buffer alone with no protease present”.
As for dpp2/7, the “cleavage of fluorogenic probe by protease panel” value in data set [4] is “Probe #762 is selective for DPP2”.
